Among the data in publication PMC6565432 are PLA signals per cell (PLA signals per cell), PLA signals per cell (single plane) (PLA signals per cell) and PLA signals per cell (z-stack) (PLA signals per cell) values, retold here.

The assay deals with VAPB (endogenous, COS-7 cells) (African green monkey (endogenous in COS-7)). The assay is described as follows: proximity ligation.

The substance “ACBD5 (endogenous, COS-7 cells) (natural protein)” returned a PLA signals per cell (PLA signals per cell) of 5.6, a PLA signals per cell (single plane) (PLA signals per cell) of 10.4 and a PLA signals per cell (z-stack) (PLA signals per cell) of 11.3.
